Results as given in paper PMC6468627.

What was measured:
[1] = target: T1, EpCAM (native, on primary lung cancer cells) (Homo sapiens (patient NSCLC tumor cells)) (UniProt P16422); assay: flow cytometry (cell binding); settings: apparent Kd on whole primary lung cancer cells; 1-300 nM aptamer; DPBS, 25 °C, 30 min; cells (3×10^5) pre-incubated with 1 ng/uL salmon sperm DNA; DNA pools/library heated to 95 °C 5 min then on ice 10 min; pH not stated
T1 sequence: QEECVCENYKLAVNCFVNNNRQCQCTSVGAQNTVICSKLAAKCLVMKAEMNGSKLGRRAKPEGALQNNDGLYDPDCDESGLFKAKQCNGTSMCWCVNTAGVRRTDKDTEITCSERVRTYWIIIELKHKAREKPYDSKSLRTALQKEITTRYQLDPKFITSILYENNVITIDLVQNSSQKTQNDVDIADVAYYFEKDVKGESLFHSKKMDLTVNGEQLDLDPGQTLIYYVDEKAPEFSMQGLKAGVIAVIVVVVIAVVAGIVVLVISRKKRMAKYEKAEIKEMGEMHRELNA

[2] = target: T1, EpCAM (native, on primary lung cancer cells) (Homo sapiens (patient NSCLC tumor cells)); assay: competition (flow cytometry); settings: DPBS, 25 °C, 30 min; cells (3×10^5) pre-incubated with 1 ng/uL salmon sperm DNA; DNA pools/library heated to 95 °C 5 min then on ice 10 min; pH not stated

Row | Sequence | Kd [1] | binding signal (% displaced by antibody) [2] | binding signal (% of cells releasing aptamer) [2]
1 | CTCCTCTGACTGTAACCACGACACGCACAAATGTCAGTGTACCGCACTCGCACATTCTTAGCATAGGTAGTCCAGAAGCC [EPCAM-APT-01 (ECM_01)] | 25 nM | 15 | –
2 | CTCCTCTGACTGTAACCACGGTGCGCGTACCACCATGTGTACACACTGCATGTTTGGTTAGCATAGGTAGTCCAGAAGCC [EPCAM-APT-02 (ECM_02)] | 15 nM | – | 18
